Patent US20230203178A1 (SICHUAN KELUN BIOTECH BIOPHARMACEUTICAL, published 2023)

B1: TanCAR 08 (other)
chain: DIVMTQSPLSLPVTPGEPASISCRSSQSLVHSNGNTFLHWYLQKPGQSPQLLIYKVSNRFSGVPDRFSGSGSGTDFTLKISRVEAEDVGVYYCMQSTHVLTFGGGTKLEIKRAGGGGSGGGGSGGGGSQVQLVQSGAEVKKPGASVKVSCKASGYTFTDYLMHWVRQAPGQGLEWMGWINTETGEPTYADDFKGRVTMTRDTSTSTVYMELSSLRSEDTAVYYCAPSLYYGYSWFTYWGQGTLVTVSGGGGSGGGGSGGGGSGGGGSQVTLRESGPALVKPTQTLTLTCTFSGVSLPDYGVSWIRQPPGKALEWLAVIWGSETTYYNSALKSRLTISKDTSKNQVVLTMTNMDPVDTATYYCAKHYYYGGSYAMDYWGQGTTVTVSSGSTSGSGKPGSGEGSTKGEIVLTQSPATLSLSPGERATLSCRASQDISKYLNWYQQKPGQAPRLLIYHTSRLHSGIPDRFSGSGSGTDFTLTISRLEPEDIAVYYCQQGNTLPYTFGQGTKLEITTTPAPRPPTPAPTIASQPLSLRPEACRPAAGGAVHTRGLDFACDIYIWAPLAGTCGVLLLSLVITLYCKRGRKKLLYIFKQPFMRPVQTTQEEDGCSCRFPEEEEGGCELRVKFSRSADAPAYQQGQNQLYNELNLGRREEYDVLDKRRGRDPEMGGKPRRKNPQEGLYNELQKDKMAEAYSEIGMKGERRRGKGHDGLYQGLSTATKDTYDALHMQALPPR
notes: Tandem bispecific chimeric antigen receptor on human T cells; built here from its parts without the signal peptide; also called TanCAR 08 CAR-T
B2: TanCAR 10 (other)
chain: DIVMTQSPLSLPVTPGEPASISCRSSQSLVHSNGNTFLHWYLQKPGQSPQLLIYKVSNRFSGVPDRFSGSGSGTDFTLKISRVEAEDVGVYYCMQSTHVLTFGGGTKLEIKRAGGGGSGGGGSGGGGSQVQLVQSGAEVKKPGASVKVSCKASGYTFTDYLMHWVRQAPGQGLEWMGWINTETGEPTYADDFKGRVTMTRDTSTSTVYMELSSLRSEDTAVYYCAPSLYYGYSWFTYWGQGTLVTVSGGGGSGGGGSGGGGSGGGGSEVKLQESGPGLVAPSQSLSVTCTVSGVSLPDYGVSWIRQPPRKGLEWLGVIWGSETTYYNSALKSRLTIIKDNSKSQVFLKMNSLQTDDTAIYYCAKHYYYGGSYAMDYWGQGTSVTVSSGSTSGSGKPGSGEGSTKGDIQMTQTTSSLSASLGDRVTISCRASQDISKYLNWYQQKPDGTVKLLIYHTSRLHSGVPSRFSGSGSGTDYSLTISNLEQEDIATYFCQQGNTLPYTFGGGTKLEITESKYGPPCPPCPFWVLVVVGGVLACYSLLVTVAFIIFWVKRGRKKLLYIFKQPFMRPVQTTQEEDGCSCRFPEEEEGGCELRVKFSRSADAPAYKQGQNQLYNELNLGRREEYDVLDKRRGRDPEMGGKPRRKNPQEGLYNELQKDKMAEAYSEIGMKGERRRGKGHDGLYQGLSTATKDTYDALHMQALPPR
notes: Tandem bispecific chimeric antigen receptor on human T cells; built here from its parts without the signal peptide; also called TanCAR 10 CAR-T
B3: TanCAR 06 (other)
chain: QVTLRESGPALVKPTQTLTLTCTFSGVSLPDYGVSWIRQPPGKALEWLAVIWGSETTYYNSALKSRLTISKDTSKNQVVLTMTNMDPVDTATYYCAKHYYYGGSYAMDYWGQGTTVTVSSGGGGSDIVMTQSPLSLPVTPGEPASISCRSSQSLVHSNGNTFLHWYLQKPGQSPQLLIYKVSNRFSGVPDRFSGSGSGTDFTLKISRVEAEDVGVYYCMQSTHVLTFGGGTKLEIKRAGGGGSGGGGSGGGGSGGGGSQVQLVQSGAEVKKPGASVKVSCKASGYTFTDYLMHWVRQAPGQGLEWMGWINTETGEPTYADDFKGRVTMTRDTSTSTVYMELSSLRSEDTAVYYCAPSLYYGYSWFTYWGQGTLVTVSGGGGSEIVLTQSPATLSLSPGERATLSCRASQDISKYLNWYQQKPGQAPRLLIYHTSRLHSGIPDRFSGSGSGTDFTLTISRLEPEDIAVYYCQQGNTLPYTFGQGTKLEITTTPAPRPPTPAPTIASQPLSLRPEACRPAAGGAVHTRGLDFACDIYIWAPLAGTCGVLLLSLVITLYCKRGRKKLLYIFKQPFMRPVQTTQEEDGCSCRFPEEEEGGCELRVKFSRSADAPAYKQGQNQLYNELNLGRREEYDVLDKRRGRDPEMGGKPRRKNPQEGLYNELQKDKMAEAYSEIGMKGERRRGKGHDGLYQGLSTATKDTYDALHMQALPPR
notes: Tandem (looped) bispecific chimeric antigen receptor on human T cells; built here from its parts without the signal peptide; also called TanCAR 06 CAR-T
B4: TanCAR 05 (other)
chain: DIVMTQSPLSLPVTPGEPASISCRSSQSLVHSNGNTFLHWYLQKPGQSPQLLIYKVSNRFSGVPDRFSGSGSGTDFTLKISRVEAEDVGVYYCMQSTHVLTFGGGTKLEIKRAGGGGSQVQLVQSGAEVKKPGASVKVSCKASGYTFTDYLMHWVRQAPGQGLEWMGWINTETGEPTYADDFKGRVTMTRDTSTSTVYMELSSLRSEDTAVYYCAPSLYYGYSWFTYWGQGTLVTVSGGGGSGGGGSGGGGSGGGGSQVTLRESGPALVKPTQTLTLTCTFSGVSLPDYGVSWIRQPPGKALEWLAVIWGSETTYYNSALKSRLTISKDTSKNQVVLTMTNMDPVDTATYYCAKHYYYGGSYAMDYWGQGTTVTVSSGGGGSEIVLTQSPATLSLSPGERATLSCRASQDISKYLNWYQQKPGQAPRLLIYHTSRLHSGIPDRFSGSGSGTDFTLTISRLEPEDIAVYYCQQGNTLPYTFGQGTKLEITTTPAPRPPTPAPTIASQPLSLRPEACRPAAGGAVHTRGLDFACDIYIWAPLAGTCGVLLLSLVITLYCKRGRKKLLYIFKQPFMRPVQTTQEEDGCSCRFPEEEEGGCELRVKFSRSADAPAYKQGQNQLYNELNLGRREEYDVLDKRRGRDPEMGGKPRRKNPQEGLYNELQKDKMAEAYSEIGMKGERRRGKGHDGLYQGLSTATKDTYDALHMQALPPR
notes: Tandem bispecific chimeric antigen receptor on human T cells; built here from its parts without the signal peptide; also called TanCAR 05 CAR-T
B5: TanCAR 02 (other)
chain: DIVMTQSPLSLPVTPGEPASISCRSSQSLVHSNGNTFLHWYLQKPGQSPQLLIYKVSNRFSGVPDRFSGSGSGTDFTLKISRVEAEDVGVYYCMQSTHVLTFGGGTKLEIKRAGGGGSGGGGSGGGGSQVQLVQSGAEVKKPGASVKVSCKASGYTFTDYLMHWVRQAPGQGLEWMGWINTETGEPTYADDFKGRVTMTRDTSTSTVYMELSSLRSEDTAVYYCAPSLYYGYSWFTYWGQGTLVTVSEAAAKEAAAKEAAAKQVTLRESGPALVKPTQTLTLTCTFSGVSLPDYGVSWIRQPPGKALEWLAVIWGSETTYYNSALKSRLTISKDTSKNQVVLTMTNMDPVDTATYYCAKHYYYGGSYAMDYWGQGTTVTVSSGGGGSGGGGSGGGGSEIVLTQSPATLSLSPGERATLSCRASQDISKYLNWYQQKPGQAPRLLIYHTSRLHSGIPDRFSGSGSGTDFTLTISRLEPEDIAVYYCQQGNTLPYTFGQGTKLEITTTPAPRPPTPAPTIASQPLSLRPEACRPAAGGAVHTRGLDFACDIYIWAPLAGTCGVLLLSLVITLYCKRGRKKLLYIFKQPFMRPVQTTQEEDGCSCRFPEEEEGGCELRVKFSRSADAPAYKQGQNQLYNELNLGRREEYDVLDKRRGRDPEMGGKPRRKNPQEGLYNELQKDKMAEAYSEIGMKGERRRGKGHDGLYQGLSTATKDTYDALHMQALPPR
notes: Tandem bispecific chimeric antigen receptor on human T cells; built here from its parts without the signal peptide; also called TanCAR 02 CAR-T

Molecular target: T1, BCMA expressed on target cells (CHO-K1-BCMA recombinant cell line; MM.1S; RPMI8226) (human, UniProt Q02223 1-184)
T1 sequence (looked up): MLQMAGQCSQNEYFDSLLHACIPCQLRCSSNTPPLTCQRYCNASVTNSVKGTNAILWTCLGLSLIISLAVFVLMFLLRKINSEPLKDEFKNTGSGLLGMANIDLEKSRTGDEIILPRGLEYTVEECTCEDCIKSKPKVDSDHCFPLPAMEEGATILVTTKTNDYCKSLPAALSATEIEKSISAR
Assay: cell-based or functional assay

| Binder | lysis rate of CHO-K1-BCMA-luc cells by CAR-T cells, ratio 0.25:1 [%] | lysis rate of CHO-K1-BCMA-luc cells by CAR-T cells, ratio 0.5:1 [%] | lysis rate of CHO-K1-BCMA-luc cells by CAR-T cells, ratio 1:1 [%] | lysis rate of CHO-K1-BCMA-luc cells by CAR-T cells, ratio 2:1 [%] |
| --- | --- | --- | --- | --- |
| B1 | 12.3 | 38.4 | 65.9 |  |
| B2 | 17.1 | 36 | 57.9 |  |
| B3 | 31.9 | 48.3 | 78.4 | 92.9 |
| B4 | 26.6 | 39.2 | 58.2 | 79.8 |
| B5 | 24 | 35.9 | 60.7 | 59 |

Molecular target: T2, CD19 expressed on Nalm6 cells (UniProt P15391 20-556, limits assumed)
T2 sequence (looked up): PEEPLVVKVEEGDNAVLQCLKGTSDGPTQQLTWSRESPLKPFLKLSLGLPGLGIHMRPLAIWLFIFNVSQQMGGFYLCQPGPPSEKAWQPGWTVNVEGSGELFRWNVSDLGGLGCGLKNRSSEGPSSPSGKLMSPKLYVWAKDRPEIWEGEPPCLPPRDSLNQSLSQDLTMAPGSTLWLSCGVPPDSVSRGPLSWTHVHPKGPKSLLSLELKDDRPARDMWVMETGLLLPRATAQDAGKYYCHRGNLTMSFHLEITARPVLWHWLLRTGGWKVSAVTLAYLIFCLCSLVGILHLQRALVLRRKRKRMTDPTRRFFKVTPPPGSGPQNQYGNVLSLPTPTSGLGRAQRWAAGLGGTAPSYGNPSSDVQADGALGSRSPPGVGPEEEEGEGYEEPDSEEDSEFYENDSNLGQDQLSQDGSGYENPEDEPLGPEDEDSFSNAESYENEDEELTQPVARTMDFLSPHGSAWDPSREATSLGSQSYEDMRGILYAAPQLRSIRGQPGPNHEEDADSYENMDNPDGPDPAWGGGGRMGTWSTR
Assay: cell-based or functional assay

| Binder | lysis rate of Nalm6-luc cells by CAR-T cells, ratio 0.25:1 [%] | lysis rate of Nalm6-luc cells by CAR-T cells, ratio 0.5:1 [%] | lysis rate of Nalm6-luc cells by CAR-T cells, ratio 1:1 [%] | lysis rate of Nalm6-luc cells by CAR-T cells, ratio 2:1 [%] |
| --- | --- | --- | --- | --- |
| B1 | 65.9 | 83.8 | 92.2 |  |
| B2 | 59.6 | 77.4 | 91.5 |  |
| B3 | 68.3 | 62.9 | 88.9 | 95.5 |
| B4 | 25.8 | 42.4 | 67.7 | 91.2 |
| B5 | 26.1 | 49.8 | 70.1 | 82.4 |

Molecular target: T3, human BCMA (antigen) (human, UniProt Q02223 1-54, limits assumed)
T3 construct: Antigen coupled to the CM5 chip in SPR; also called B-cell maturation antigen; TNFRF17
T3 sequence (looked up): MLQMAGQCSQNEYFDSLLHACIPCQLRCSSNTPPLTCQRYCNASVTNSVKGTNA
Assay: flow cytometry of lentivirus-transduced T cells labelled with antigen, 48 h after transduction; percent positive cells
Excerpt: (§1) The nucleic acid sequence encoding the CAR was expressed under the drive of a promoter, therefore the lentivirus-transfected T cells could be labeled with an antigen or anti-CD19 antibody and measured by flow cytometry, to reflect the expression level of the CAR on the surface of the T cells.

| Binder | Positive rate of binding to BCMA [%] |
| --- | --- |
| B1 | 28.5 |
| B2 | 39.8 |
| B3 | 13.3 |
| B4 | 14.2 |
| B5 | 14.1 |

Molecular target: T4, human CD19 (antigen) (human, UniProt P15391 20-291, limits assumed)
T4 sequence (looked up): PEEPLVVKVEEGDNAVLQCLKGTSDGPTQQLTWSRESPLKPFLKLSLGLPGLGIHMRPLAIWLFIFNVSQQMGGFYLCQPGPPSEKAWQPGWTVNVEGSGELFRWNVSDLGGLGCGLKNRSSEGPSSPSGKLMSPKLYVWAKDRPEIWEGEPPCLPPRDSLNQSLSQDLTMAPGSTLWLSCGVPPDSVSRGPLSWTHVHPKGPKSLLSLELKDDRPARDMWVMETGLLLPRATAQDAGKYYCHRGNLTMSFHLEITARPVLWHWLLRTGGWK
Assay: flow cytometry of lentivirus-transduced T cells labelled with antigen or anti-CD19 antibody, 48 h after transduction; percent positive cells
Excerpt: as §1

| Binder | Positive rate of binding to CD19 [%] |
| --- | --- |
| B1 | 24.4 |
| B2 | 34.8 |
| B3 | 16.4 |
| B4 | 11.8 |
| B5 | 12.7 |
